Experimental data from the RNAGym collection of RNA variant scans (doi:10.1093/molbev/msab373).

B1: Azoarcus group I ribozyme (parent)
chain: GUGCCUUGCGCCGGGAAACCACGCAAGGGAUGGUGUCAAAUUCGGCGAAACCUAAGCGCCCGCCCGGGCGUAUGGCAACGCCGAGCCAAGCUUCGGCGCCUGCGCCGAUGAAGGUGUAGAGACUAGACGGCACCCACCUAAGGCAAACGCUAUGGUGAAGGCAUAGUCCAGGGAGUGGCGAAAGUCACACAAACCGG

Variants of: B1
Experiment: reverse-splicing fitness (ratio to wild type); higher = more active; in vitro selection; Mg2+ level not given
How it was run: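 An in vitro group I ribozyme library with randomized positions was T7-transcribed and gel-purified. In triplicate, 10 pmol RNA in EPPS pH 7.5 was reacted with 50 pmoles of a 30-nt RNA substrate for 1 h at 37 °C across several added MgCl2 levels (1–48 mM), then stopped with EDTA. Products were reverse transcribed from a substrate-complementary primer, PCR-amplified and sequenced (HiSeq 4000). Fitness is a variant's read proportion after selection over that before, normalised to wild type.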
For GUGCCUUGCGCCGGGAAACCACGCAAGGGAUGGUGUCAAAUUCGGCGAAACCUAAGCGCCCGCCCGGGCGUAUGGCAACGCUGAGCCAAGCUUCGGCGCCUGCGCCGAUGUAGGUGUAGAGACUAGACGGCACCCACCUAAGGCGAACGCUAUGGUGAAGGCAUAGUCCAGGGAGUGGCGAAAGUCACACAAACCGG [C82U A111U A145G], the reverse-splicing fitness was 0.332. GUGCCUUGCGCCGGGAAACCACGCAAGGGAUGGUGUCAAAUUCGGCGAAACCUAAGCGCCCGCCCGGGCGUAUGGCAACGCUGAGCCAAGCUUCGGCGCCUGCGCCGAUGUAGGUGUAGAGACUAGACGGCACCCACCUAAGGCGAACGAUAUGGUGAAGGCAUAGUCCAGGGAGUGGCGAAAGUCACACAAACCGG [C82U A111U A145G C150A] gave a reverse-splicing fitness of 0.0405. In the case of GUGCCUUGCGCCGGGAAACCACGCAAGGGAUGGUGUCAAAUUCGGCGAAACCUAAGCGCCCGCCCGGGCGUAUGGCAACGCUGAGCCAAGCUUCGGCGCCUGCGCCGAUGUAGGUGUAGAGACUAGACGGCACCCACCUAAGGCGAACGAUAUGGUGAAGGCAUAGUCAAGGGAGUGGCGAAAGUCACACAAACCGG [C82U A111U A145G C150A C169A], the reverse-splicing fitness is reported as 0.00979. GUGCCUUGCGCCGGGAAACCACGCAAGGGAUGGUGUCAAAUUCGGCGAAACCUAAGCGCCCGCCCGGGCGUAUGGCAACGCUGAGCCAAGCUUCGGCGCCUGCGCCGAUGUAGGUGUAGAGACUAGACGGCACCCACCUAAGGCGAACGAUAUGGUGAAGGCAUAGUCAAGGGAGAGGCGAAAGUCACACAAACCGG [C82U A111U A145G C150A C169A U176A] gave a reverse-splicing fitness of 0.0186. In the case of GUGCCUUGCGCCGGGAAACCACGCAAGGGAUGGUGUCAAAUUCGGCGAAACCUAAGCGCCCGCCCGGGCGUAUGGCAACGCUGAGCCAAGCUUCGGCGCCUGCGCCGAUGUAGGUGUAGAGACUAGACGGCACCCACCUAAGGCGAACGAUAUGGUGAAGGCAUAGUCAAGGGAGCGGCGAAAGUCACACAAACCGG [C82U A111U A145G C150A C169A U176C], the reverse-splicing fitness is reported as 0.0216. With GUGCCUUGCGCCGGGAAACCACGCAAGGGAUGGUGUCAAAUUCGGCGAAACCUAAGCGCCCGCCCGGGCGUAUGGCAACGCUGAGCCAAGCUUCGGCGCCUGCGCCGAUGUAGGUGUAGAGACUAGACGGCACCCACCUAAGGCGAACGAUAUGGUGAAGGCAUAGUCAAGGGAGGGGCGAAAGUCACACAAACCGG [C82U A111U A145G C150A C169A U176G] the reverse-splicing fitness was 0.00768. Work on GUGCCUUGCGCCGGGAAACCACGCAAGGGAUGGUGUCAAAUUCGGCGAAACCUAAGCGCCCGCCCGGGCGUAUGGCAACGCUGAGCCAAGCUUCGGCGCCUGCGCCGAUGUAGGUGUAGAGACUAGACGGCACCCACCUAAGGCGAACGAUAUGGUGAAGGCAUAGUCGAGGGAGUGGCGAAAGUCACACAAACCGG [C82U A111U A145G C150A C169G] yielded a reverse-splicing fitness of 0.00847. In the case of GUGCCUUGCGCCGGGAAACCACGCAAGGGAUGGUGUCAAAUUCGGCGAAACCUAAGCGCCCGCCCGGGCGUAUGGCAACGCUGAGCCAAGCUUCGGCGCCUGCGCCGAUGUAGGUGUAGAGACUAGACGGCACCCACCUAAGGCGAACGAUAUGGUGAAGGCAUAGUCGAGGGAGAGGCGAAAGUCACACAAACCGG [C82U A111U A145G C150A C169G U176A], the reverse-splicing fitness is reported as 0.0146. GUGCCUUGCGCCGGGAAACCACGCAAGGGAUGGUGUCAAAUUCGGCGAAACCUAAGCGCCCGCCCGGGCGUAUGGCAACGCUGAGCCAAGCUUCGGCGCCUGCGCCGAUGUAGGUGUAGAGACUAGACGGCACCCACCUAAGGCGAACGAUAUGGUGAAGGCAUAGUCGAGGGAGCGGCGAAAGUCACACAAACCGG [C82U A111U A145G C150A C169G U176C] showed a reverse-splicing fitness of 0.0254. In the case of GUGCCUUGCGCCGGGAAACCACGCAAGGGAUGGUGUCAAAUUCGGCGAAACCUAAGCGCCCGCCCGGGCGUAUGGCAACGCUGAGCCAAGCUUCGGCGCCUGCGCCGAUGUAGGUGUAGAGACUAGACGGCACCCACCUAAGGCGAACGAUAUGGUGAAGGCAUAGUCGAGGGAGGGGCGAAAGUCACACAAACCGG [C82U A111U A145G C150A C169G U176G], the reverse-splicing fitness is reported as 0.00627. GUGCCUUGCGCCGGGAAACCACGCAAGGGAUGGUGUCAAAUUCGGCGAAACCUAAGCGCCCGCCCGGGCGUAUGGCAACGCUGAGCCAAGCUUCGGCGCCUGCGCCGAUGUAGGUGUAGAGACUAGACGGCACCCACCUAAGGCGAACGAUAUGGUGAAGGCAUAGUCUAGGGAGUGGCGAAAGUCACACAAACCGG [C82U A111U A145G C150A C169U] showed a reverse-splicing fitness of 0.0105. For GUGCCUUGCGCCGGGAAACCACGCAAGGGAUGGUGUCAAAUUCGGCGAAACCUAAGCGCCCGCCCGGGCGUAUGGCAACGCUGAGCCAAGCUUCGGCGCCUGCGCCGAUGUAGGUGUAGAGACUAGACGGCACCCACCUAAGGCGAACGAUAUGGUGAAGGCAUAGUCUAGGGAGAGGCGAAAGUCACACAAACCGG [C82U A111U A145G C150A C169U U176A], the reverse-splicing fitness was 0.016. Work on GUGCCUUGCGCCGGGAAACCACGCAAGGGAUGGUGUCAAAUUCGGCGAAACCUAAGCGCCCGCCCGGGCGUAUGGCAACGCUGAGCCAAGCUUCGGCGCCUGCGCCGAUGUAGGUGUAGAGACUAGACGGCACCCACCUAAGGCGAACGAUAUGGUGAAGGCAUAGUCUAGGGAGCGGCGAAAGUCACACAAACCGG [C82U A111U A145G C150A C169U U176C] yielded a reverse-splicing fitness of 0.0133. Variant GUGCCUUGCGCCGGGAAACCACGCAAGGGAUGGUGUCAAAUUCGGCGAAACCUAAGCGCCCGCCCGGGCGUAUGGCAACGCUGAGCCAAGCUUCGGCGCCUGCGCCGAUGUAGGUGUAGAGACUAGACGGCACCCACCUAAGGCGAACGAUAUGGUGAAGGCAUAGUCUAGGGAGGGGCGAAAGUCACACAAACCGG [C82U A111U A145G C150A C169U U176G] has a reverse-splicing fitness of 0.00658. Work on GUGCCUUGCGCCGGGAAACCACGCAAGGGAUGGUGUCAAAUUCGGCGAAACCUAAGCGCCCGCCCGGGCGUAUGGCAACGCUGAGCCAAGCUUCGGCGCCUGCGCCGAUGUAGGUGUAGAGACUAGACGGCACCCACCUAAGGCGAACGAUAUGGUGAAGGCAUAGUCCAGGGAGAGGCGAAAGUCACACAAACCGG [C82U A111U A145G C150A U176A] yielded a reverse-splicing fitness of 0.0215.
